Stoichiometry N data for 1 substance are collected here from PMC9907207.

In the assay the target is D614G VFLIP spike trimer (SARS-CoV-2). Kind of assay: cryo-EM structure.

As for “D614G VFLIP spike trimer (natural protein)”, the stoichiometry N (as a rule, the number of molecules, sites or subunits per partner or assembly) amounted to 3.
